What all share (assay): protein array
The target of test [1] is T1, RAN binding protein 10, transcript variant 1 (human, UniProt Q6VN20 2-620).
T1 construct: on protein array; also called RANBP10

Test [2] addresses phosphodiesterase 5A, transcript variant 1 (human, UniProt O76074 1-875).
For a further test, the target named is T2, zinc finger protein 296 (human, UniProt Q8WUU4 1-475).
T2 construct: on protein array; also called ZNF296
T2 sequence: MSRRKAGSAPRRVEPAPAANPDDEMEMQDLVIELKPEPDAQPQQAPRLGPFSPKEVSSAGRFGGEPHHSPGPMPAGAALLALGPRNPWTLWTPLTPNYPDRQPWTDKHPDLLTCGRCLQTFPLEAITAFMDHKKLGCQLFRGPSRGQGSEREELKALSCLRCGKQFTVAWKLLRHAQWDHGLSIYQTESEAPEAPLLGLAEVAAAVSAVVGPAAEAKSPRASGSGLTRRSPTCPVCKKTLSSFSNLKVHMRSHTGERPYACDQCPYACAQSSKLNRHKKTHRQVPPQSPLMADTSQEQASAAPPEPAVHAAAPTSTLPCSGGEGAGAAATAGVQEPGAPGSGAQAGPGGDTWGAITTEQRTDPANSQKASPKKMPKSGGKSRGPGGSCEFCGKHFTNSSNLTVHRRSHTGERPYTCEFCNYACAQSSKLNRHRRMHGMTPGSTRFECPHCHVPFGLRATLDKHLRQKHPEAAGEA

For test [3], the target named is T3, microtubule associated scaffold protein 2, transcript variant 2 (human, UniProt Q5JR59 1040-1369).
T3 construct: on protein array; also called MTUS2
T3 sequence: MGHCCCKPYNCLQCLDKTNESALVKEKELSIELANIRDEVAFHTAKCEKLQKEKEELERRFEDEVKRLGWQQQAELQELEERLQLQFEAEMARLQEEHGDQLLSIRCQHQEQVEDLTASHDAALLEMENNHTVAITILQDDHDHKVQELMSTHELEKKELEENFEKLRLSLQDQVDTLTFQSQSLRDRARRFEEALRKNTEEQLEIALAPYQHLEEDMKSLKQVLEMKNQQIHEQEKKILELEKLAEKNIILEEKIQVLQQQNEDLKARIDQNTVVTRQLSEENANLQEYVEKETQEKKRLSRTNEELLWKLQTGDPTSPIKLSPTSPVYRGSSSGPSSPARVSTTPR

The target in test [4] is T4, hydroxymethylbilane synthase, transcript variant X3 (human, UniProt P08397 18-361).
T4 construct: on protein array; also called HMBS; IAMBS
T4 sequence: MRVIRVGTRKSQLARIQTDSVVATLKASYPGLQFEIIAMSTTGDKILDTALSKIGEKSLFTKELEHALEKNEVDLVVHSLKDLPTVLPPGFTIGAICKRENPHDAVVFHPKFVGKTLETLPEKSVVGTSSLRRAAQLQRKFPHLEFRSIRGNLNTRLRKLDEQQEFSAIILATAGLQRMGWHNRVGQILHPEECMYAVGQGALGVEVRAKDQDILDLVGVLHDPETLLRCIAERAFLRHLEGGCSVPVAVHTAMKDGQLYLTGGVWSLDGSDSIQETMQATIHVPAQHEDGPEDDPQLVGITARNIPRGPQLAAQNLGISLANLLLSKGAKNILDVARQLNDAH

In test [5] the target is T5, hook microtubule tethering protein 2, transcript variant 2 (human, UniProt Q96ED9 1-719).
T5 construct: on protein array; also called HOOK2
T5 sequence: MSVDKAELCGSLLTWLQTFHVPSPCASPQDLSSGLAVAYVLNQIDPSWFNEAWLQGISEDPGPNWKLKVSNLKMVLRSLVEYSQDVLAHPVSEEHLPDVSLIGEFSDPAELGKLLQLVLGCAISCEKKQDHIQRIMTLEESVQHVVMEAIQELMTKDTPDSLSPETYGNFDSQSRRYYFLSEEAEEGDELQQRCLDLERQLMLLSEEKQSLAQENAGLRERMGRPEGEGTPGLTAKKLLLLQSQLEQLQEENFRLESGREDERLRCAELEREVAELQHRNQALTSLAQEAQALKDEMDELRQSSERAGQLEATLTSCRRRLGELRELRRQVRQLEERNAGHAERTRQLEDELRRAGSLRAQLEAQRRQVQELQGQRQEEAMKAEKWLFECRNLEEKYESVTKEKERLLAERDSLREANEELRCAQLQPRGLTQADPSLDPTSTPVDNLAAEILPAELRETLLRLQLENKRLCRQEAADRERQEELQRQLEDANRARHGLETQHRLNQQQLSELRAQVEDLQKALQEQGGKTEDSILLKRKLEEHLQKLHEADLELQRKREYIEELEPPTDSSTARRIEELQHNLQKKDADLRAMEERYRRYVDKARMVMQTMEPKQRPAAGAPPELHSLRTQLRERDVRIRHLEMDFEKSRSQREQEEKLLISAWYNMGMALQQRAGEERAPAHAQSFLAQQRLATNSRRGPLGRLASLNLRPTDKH

Test [6] has as its target T6, arginine and glutamate rich 1 (human, UniProt Q9NWB6 1-273).
T6 construct: on protein array; also called ARGLU1
T6 sequence: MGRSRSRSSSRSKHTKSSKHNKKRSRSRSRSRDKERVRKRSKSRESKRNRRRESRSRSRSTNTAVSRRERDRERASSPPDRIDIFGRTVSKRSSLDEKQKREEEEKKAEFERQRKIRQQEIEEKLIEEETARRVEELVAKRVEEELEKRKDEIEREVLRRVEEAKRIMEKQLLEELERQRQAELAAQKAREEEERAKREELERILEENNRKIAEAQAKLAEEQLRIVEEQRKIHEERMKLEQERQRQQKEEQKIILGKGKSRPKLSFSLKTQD

For test [7], the target named is T7, SAS-6 centriolar assembly protein, transcript variant 2 (human, UniProt Q6UVJ0 168-657).
T7 construct: on protein array; also called SASS6
T7 sequence: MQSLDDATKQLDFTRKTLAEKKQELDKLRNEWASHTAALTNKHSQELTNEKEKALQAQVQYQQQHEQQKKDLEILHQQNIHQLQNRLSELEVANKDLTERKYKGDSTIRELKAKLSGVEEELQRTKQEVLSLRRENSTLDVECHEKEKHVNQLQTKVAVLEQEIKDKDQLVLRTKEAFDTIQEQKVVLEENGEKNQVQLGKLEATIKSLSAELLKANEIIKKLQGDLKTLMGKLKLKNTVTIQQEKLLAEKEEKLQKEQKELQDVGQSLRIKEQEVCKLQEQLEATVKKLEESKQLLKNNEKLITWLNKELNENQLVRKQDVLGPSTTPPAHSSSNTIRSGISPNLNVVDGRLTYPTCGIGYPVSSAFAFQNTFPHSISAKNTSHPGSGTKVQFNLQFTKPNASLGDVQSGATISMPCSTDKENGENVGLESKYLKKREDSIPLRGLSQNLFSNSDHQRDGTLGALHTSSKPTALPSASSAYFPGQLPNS

The target of a further test is T8, Bcl2 like 1 (human, UniProt Q07817 1-233).
T8 construct: on protein array; also called BCL2L1

The target of test [8] is T9, anterior gradient 3, protein disulphide isomerase family member (human, UniProt Q8TD06 22-166).
T9 construct: on protein array; also called AGR3
T9 sequence: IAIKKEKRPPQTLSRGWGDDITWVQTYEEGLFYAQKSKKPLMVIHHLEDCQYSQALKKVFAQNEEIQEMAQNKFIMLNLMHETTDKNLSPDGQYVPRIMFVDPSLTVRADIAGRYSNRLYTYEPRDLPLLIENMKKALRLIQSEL

The target of test [9] is T10, ubiquilin 1, transcript variant 2 (human, UniProt Q9UMX0 2-589).
T10 construct: on protein array; also called UBQLN1

A further test deals with T11, ubiquilin 2 (human, UniProt Q9UHD9 2-624).
T11 construct: on protein array; also called UBQLN2

For another test, the target named is T12, Ubiquilin 3 (human, UniProt Q9H347 1-655).
T12 construct: on protein array; also called UBQLN3
T12 sequence: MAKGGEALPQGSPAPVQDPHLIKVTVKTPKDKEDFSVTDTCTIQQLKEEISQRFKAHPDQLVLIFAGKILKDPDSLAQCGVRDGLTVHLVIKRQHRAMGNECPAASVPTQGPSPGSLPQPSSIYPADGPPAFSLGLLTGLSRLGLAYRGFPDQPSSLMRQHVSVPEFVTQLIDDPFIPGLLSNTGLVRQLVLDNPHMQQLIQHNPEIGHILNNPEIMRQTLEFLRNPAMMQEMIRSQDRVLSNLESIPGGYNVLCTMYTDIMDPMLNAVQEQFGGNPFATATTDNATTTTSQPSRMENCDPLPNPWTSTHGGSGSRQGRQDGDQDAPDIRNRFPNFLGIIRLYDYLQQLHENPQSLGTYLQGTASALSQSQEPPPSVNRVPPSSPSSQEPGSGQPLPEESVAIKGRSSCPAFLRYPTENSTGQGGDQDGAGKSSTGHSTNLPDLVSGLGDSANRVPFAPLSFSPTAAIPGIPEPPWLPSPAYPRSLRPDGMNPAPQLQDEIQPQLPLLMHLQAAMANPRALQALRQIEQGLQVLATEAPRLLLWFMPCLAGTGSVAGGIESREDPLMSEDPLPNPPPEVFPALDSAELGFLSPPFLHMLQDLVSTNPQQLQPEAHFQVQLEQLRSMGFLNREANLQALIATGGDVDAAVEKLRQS

T8 sequence (Q07817 whole entry): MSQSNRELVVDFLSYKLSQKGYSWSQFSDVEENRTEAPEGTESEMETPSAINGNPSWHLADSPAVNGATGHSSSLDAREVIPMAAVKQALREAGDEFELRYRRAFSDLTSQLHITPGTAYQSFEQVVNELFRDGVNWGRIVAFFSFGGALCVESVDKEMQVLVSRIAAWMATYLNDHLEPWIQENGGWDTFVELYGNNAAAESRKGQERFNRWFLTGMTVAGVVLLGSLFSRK
T10 sequence (Q9UMX0 other isoform, or with tags, fused parts or gaps mutant limits assumed): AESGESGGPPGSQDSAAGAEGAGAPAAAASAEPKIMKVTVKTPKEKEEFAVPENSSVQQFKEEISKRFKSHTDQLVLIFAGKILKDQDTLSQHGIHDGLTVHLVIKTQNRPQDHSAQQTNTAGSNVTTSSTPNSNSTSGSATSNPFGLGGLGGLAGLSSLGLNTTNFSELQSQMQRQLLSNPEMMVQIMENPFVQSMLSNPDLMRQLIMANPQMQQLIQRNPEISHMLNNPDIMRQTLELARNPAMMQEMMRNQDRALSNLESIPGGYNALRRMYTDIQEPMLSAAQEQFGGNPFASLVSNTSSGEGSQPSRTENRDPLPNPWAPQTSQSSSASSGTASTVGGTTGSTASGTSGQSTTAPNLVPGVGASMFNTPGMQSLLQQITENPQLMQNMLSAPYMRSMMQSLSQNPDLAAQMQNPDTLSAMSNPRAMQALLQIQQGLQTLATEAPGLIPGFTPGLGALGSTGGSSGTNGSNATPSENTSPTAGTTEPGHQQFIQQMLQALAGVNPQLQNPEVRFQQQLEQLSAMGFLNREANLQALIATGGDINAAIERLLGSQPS
T1 sequence (Q6VN20 2-620 limits assumed, change not shown): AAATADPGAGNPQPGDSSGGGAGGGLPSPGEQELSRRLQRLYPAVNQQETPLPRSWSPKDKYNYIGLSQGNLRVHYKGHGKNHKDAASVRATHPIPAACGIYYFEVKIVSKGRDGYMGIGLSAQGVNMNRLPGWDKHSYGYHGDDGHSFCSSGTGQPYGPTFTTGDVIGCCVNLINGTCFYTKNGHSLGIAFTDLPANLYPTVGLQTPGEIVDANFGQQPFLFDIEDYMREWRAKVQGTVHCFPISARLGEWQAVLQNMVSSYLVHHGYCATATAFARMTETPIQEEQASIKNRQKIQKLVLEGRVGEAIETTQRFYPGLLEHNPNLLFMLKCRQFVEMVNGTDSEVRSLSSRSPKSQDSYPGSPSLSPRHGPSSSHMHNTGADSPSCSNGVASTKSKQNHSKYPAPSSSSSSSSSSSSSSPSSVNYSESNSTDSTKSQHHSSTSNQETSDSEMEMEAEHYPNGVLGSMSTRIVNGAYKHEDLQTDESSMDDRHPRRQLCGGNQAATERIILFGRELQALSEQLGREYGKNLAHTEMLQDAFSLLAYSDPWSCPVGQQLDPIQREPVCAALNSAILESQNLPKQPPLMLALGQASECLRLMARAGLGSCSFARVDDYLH
T11 sequence (Q9UHD9 2-624 limits assumed): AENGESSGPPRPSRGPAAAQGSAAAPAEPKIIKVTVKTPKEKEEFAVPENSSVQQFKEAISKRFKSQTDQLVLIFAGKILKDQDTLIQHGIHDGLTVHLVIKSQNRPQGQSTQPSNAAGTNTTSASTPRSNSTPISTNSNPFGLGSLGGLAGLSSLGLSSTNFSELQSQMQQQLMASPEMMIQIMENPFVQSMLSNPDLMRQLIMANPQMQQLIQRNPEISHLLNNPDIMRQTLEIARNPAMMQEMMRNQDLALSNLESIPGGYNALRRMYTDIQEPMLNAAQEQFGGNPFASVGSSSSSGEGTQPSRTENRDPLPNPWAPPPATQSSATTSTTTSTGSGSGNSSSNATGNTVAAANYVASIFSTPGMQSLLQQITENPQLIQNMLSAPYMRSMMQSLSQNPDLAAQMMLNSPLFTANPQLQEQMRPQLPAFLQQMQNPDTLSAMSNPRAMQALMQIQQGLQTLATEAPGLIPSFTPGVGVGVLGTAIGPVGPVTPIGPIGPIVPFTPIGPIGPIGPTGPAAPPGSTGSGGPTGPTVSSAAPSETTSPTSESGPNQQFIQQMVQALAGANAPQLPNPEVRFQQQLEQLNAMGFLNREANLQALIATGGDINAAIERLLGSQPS

B1: TMEL1017 (antibody, V domains shown)
VH: EVQLVESGGGLVKPGGSLRLSCAASGFTFSNYNMNWVRQAPGKGLEWVSSISSSSSYIYYADSVKGRFTISRDNAKNSLYLQMNSLRAEDTAVYYCARDALDFDWLLSAGGFDYWGQGTLVTVSS
VL: ASALTQPASVSGSPGQSITISCTGTSSDVGGYNYVSWYQQHPGKAPKLMIYEVSNRPSGVSNRFSGSKSGNTASLTISGLQAEDEADYYCSSYTSSSTLVFGGGTKLTVLG
notes: VH/VL tied via antigen in summary, not by name in this stretch
For B1, the binding result in test [1] was “binds”.

B2: TMEL1028 (antibody, V domains shown)
VH: QVQLVQSGAEVKKPGASVKVSCKASGYTFTSYGISWVRQAPGQGLEWMGWISAYNGNTNYAQKLQGRVTMTTDTSTSTAYMELRSLTSDDTAVYYCARDQGLERANWFDPWGQGTLVTVSS
VL: not shown
notes: as for B1
Regarding B2, the binding result (in [2]; with zinc finger protein 296) was “binds” each time.

B3: TMEL1027 (antibody, V domains shown)
VH: QVQLVQSGAEVKKPGASVKVSCKASGYTFTVYYMHWVRQAPGQGLEWMGRINPNSGGTNYAQKFQGRVTMTRDTSISTAYMELSRLTSDDTAVYYCARVVVVGTDYGMDVWGQGTTVTVSS
VL: VSSELTQDPAVSVALGQTVRITCQGDSLRSYYASWYQQRPGQAPVLVIYGKNNRPSGIPDRFSGSSSGNTASLTITGAQAEDEADYYCNSRDSSGNHVFGTGTKVTVLG
notes: as for B1
On to B3, for which the binding result in test [3] is listed as “binds”.

B4: TLUS1006 (antibody, V domains shown)
VH: PVHLVQSGAEVRKPGSSVKVSCMASGGSFNTYAVNWVRQAPGQGLEWMGGIIPVFGTTNYAPRFQGRVTITADESTSTVYMELTSLTSEDTAVYYCARDRDSGYERNCLDPWGQGTLVTVSS
VL: DIVMTQSPDSLAVTLGERATINCRSSQTVLYDSNNKNYLAWYQQKPGQPPKLLIYWASIRESGVPDRFSGSGSGTDFTLTINTLQAEDVAIYFCQQYFTTPRTFGQGTKVEIKR
notes: as for B1
In the case of B4, the binding result in test [4] and in test [5] was “binds” throughout.

B5: TMEL1031 (antibody, V domains shown)
VH: EVQLVESGGGLVQPGGSLRLSCAASGFTVSSNYMSWVRQAPGKGLEWVSVIYSGGSTYYADSVKGRFTISRDNSKNTLSLQMNSLRAEDTAVYYCARESSAAGYDYWGQGTLVTVSS
VL: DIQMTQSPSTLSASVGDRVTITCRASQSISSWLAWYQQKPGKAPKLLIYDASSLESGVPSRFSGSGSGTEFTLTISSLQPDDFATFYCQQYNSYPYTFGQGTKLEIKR
notes: as for B1
For the molecule B5, the binding result in [6] and in test [7] was “binds” each time.

B6: TMEL1030 (antibody, V domains shown)
VH: QVQLQESGPGLVKPSGTLSLTCAVSGGSISSSNCWSWVRQPPGKGLEWLGEICHSGSTSYNPSLKSRVTISVDKSKNQFSLKLRSVTAADTAVYYCARESPLTVVFDYWGQGTLVTVSS
VL: DIQMTQSPSSLSASVGDRVTITCRASQGIRNDLGWFQQKPGKAPKRLIYAASNLPSGVSSRFSGSGSGTEFTLTISSLQPEDFATYYCLQHNNYPLTFGQGTKVEFKR
notes: as for B1
In the case of B6, the binding result in the test with Bcl2 like 1 is “binds”.

B7: TMEL1020 (antibody, V domains shown)
VH: QVHLVQSGAEVKKPGASVKVSCKASGYTFTNYFIHWVRQAPGQGPEWMGVINPSFGSTTYAQKLQGRVTMTRETSTSTVYMELSSLRSEDTAVYYCARESLDSASYSTIAHWGQGTLVTVSS
VL: EIVLAQSPGTLYLSPGERATLSCRASQSVRGNYLAWYQQRPGQAPRLLIYGASSRATGIPDRFGGSGSGTDFTLTITRLLPEDFAVYYCHQYGSSPRTFGQGTKVEIKR
notes: as for B1
As to B7, in test [8], the binding result is recorded as “binds”.

B8: TMEL1018 (antibody, V domains shown)
VH: PLQLQESGPGLVKPSETLSLTCTVSGGSISSSSYYWGWIRQPPGKGLEWIGSIYYSGSTYYNPSLKSRVTISVDTSKNQFSLKLSSVTAADTAVYSCARLLVGGAFDIWGQGTMVTVSS
VL: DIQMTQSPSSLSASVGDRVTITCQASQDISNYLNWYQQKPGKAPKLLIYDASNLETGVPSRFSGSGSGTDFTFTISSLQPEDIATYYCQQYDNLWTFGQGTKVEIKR
notes: as for B1
Take B8: the binding result (in test [9]; in the test with ubiquilin 2; with Ubiquilin 3) was “binds” throughout.
